Numbering of substitutions follows the chain as printed.
B1: Y-Aib-EGT-αMeF(2F)-TSD-4Pal-SI-αMeL-LD-Orn-K((2-[2-(2-Amino-ethoxy)-ethoxy]-acetyl)2-CO-(CH2)12-CO2H)AQ-Aib-EFI-(D-Glu)-αMeY-LIK((2-[2-(2-Amino-ethoxy)-ethoxy]- … (peptide)
peptide: YXEGTXTSDXSIXLDXKAQXEFIXXLIKGGPSSGAPPPS
modifications: Aib2, αMeF(2F)6, 4Pal10, αMeL13, Orn16, Aib20, D-Glu24, αMeY25; acylated K17, K28 (groups as in name); C-terminal amide
B2: Y-Aib-EGT-αMeF(2F)-TSD-4Pal-SI-αMeL-LD-Orn-K((εK)-(2-[2-(2-Amino-ethoxy)-ethoxy]-acetyl)-(γ-Glu)-CO-(CH2)12-CO2H)AQ-Aib-EFI-(D-Glu)-αMeY-LIEGGK((εK)-(2-[2-(2-Am … (peptide)
peptide: B1 peptide with K28E, P31K
modifications: Aib2, αMeF(2F)6, 4Pal10, αMeL13, Orn16, K17(Z1), Aib20, D-Glu24, αMeY25, K31(Z1), C-term NH2; Z1=(εK)-AEEA-(γ-Glu)-CO-(CH2)12-CO2H
B3: Y-Aib-EGT-αMeF(2F)-TSD-4Pal-SI-αMeL-LD-Orn-K((2-[2-(2-Amino-ethoxy)-ethoxy]-acetyl)-(γ-Glu)-(2-[2-(2-Amino-ethoxy)-ethoxy]-acetyl)-CO-(CH2)12-CO2H)AQ-Aib-EFI-(D … (peptide)
peptide: B1 peptide with K28E, P31K
modifications: Aib2, αMeF(2F)6, 4Pal10, αMeL13, Orn16, Aib20, D-Glu24, αMeY25; acylated K17, K31 (groups as in name); C-terminal amide
B4: Y-Aib-EGT-αMeF(2F)-TSD-4Pal-SI-αMeL-LD-Orn-K((2-[2-(2-Amino-ethoxy)-ethoxy]-acetyl)2-CO-(CH2)12-CO2H)AQ-Aib-K((2-[2-(2-Amino-ethoxy)-ethoxy]-acetyl)2-CO-(CH2)12 … (peptide)
peptide: B1 peptide with E21K, K28E
modifications: Aib2, αMeF(2F)6, 4Pal10, αMeL13, Orn16, Aib20, D-Glu24, αMeY25; acylated K17, K21 (groups as in name); C-terminal amide
B5: Y-Aib-EGT-αMeF(2F)-TSD-4Pal-SI-αMeL-LD-Orn-K((2-[2-(2-Amino-ethoxy)-ethoxy]-acetyl)3-(γ-Glu)-CO-(CH2)14-CH3)AQ-Aib-EFI-(D-Glu)-αMeY-LIEGGK((2-[2-(2-Amino-ethoxy … (peptide)
peptide: B1 peptide with K28E, P31K
modifications: Aib2, αMeF(2F)6, 4Pal10, αMeL13, Orn16, K17(Z1), Aib20, D-Glu24, αMeY25, K31(Z1), C-term NH2; Z1=AEEA3-(γ-Glu)-CO-(CH2)14-CH3
B6: Y-Aib-EGT-αMeF(2F)-TSD-4Pal-SI-αMeL-LD-Orn-IAQ-Aib-K((2-[2-(2-Amino-ethoxy)-ethoxy]-acetyl)2-(γ-Glu)-CO-(CH2)12-CO2H)FI-(D-Glu)-αMeY-LIK((2-[2-(2-Amino-ethoxy)- … (peptide)
peptide: B1 peptide with K17I, E21K
modifications: Aib2, αMeF(2F)6, 4Pal10, αMeL13, Orn16, Aib20, D-Glu24, αMeY25; acylated K21, K28 (groups as in name); C-terminal amide
B7: Y-Aib-EGT-αMeF(2F)-TSD-4Pal-SI-αMeL-LD-Orn-K((2-[2-(2-Amino-ethoxy)-ethoxy]-acetyl)2-(γ-Glu)-(4-(4-tert-butylphenyl)butanoyl))AQ-Aib-EFI-(D-Glu)-αMeY-LIK((2-[2- … (peptide)
peptide: B1 peptide
modifications: Aib2, αMeF(2F)6, 4Pal10, αMeL13, Orn16, Aib20, D-Glu24, αMeY25; acylated K17, K28 (groups as in name); C-terminal amide
B8: Y-Aib-EGT-αMeF(2F)-TSD-4Pal-SI-αMeL-LD-Orn-K((εK)-(γ-Glu)-CO-(CH2)12-CO2H)AQ-Aib-EFI-(D-Glu)-αMeY-LIEGGK((εK)-(γ-Glu)-CO-(CH2)12-CO2H)SSGAPPPS-NH2 (peptide)
peptide: B1 peptide with K28E, P31K
modifications: Aib2, αMeF(2F)6, 4Pal10, αMeL13, Orn16, K17(Z1), Aib20, D-Glu24, αMeY25, K31(Z1), C-term NH2; Z1=(εK)-(γ-Glu)-CO-(CH2)12-CO2H
B9: Y-Aib-EGT-αMeF-TSD-4Pal-SI-αMeL-LD-Orn-K((2-[2-(2-Amino-ethoxy)-ethoxy]-acetyl)2-(γ-Glu)-CO-(CH2)10-CH3)AQ-Aib-EFI-(D-Glu)-αMeY-LIEGGK((2-[2-(2-Amino-ethoxy)-et … (peptide)
peptide: B1 peptide with K28E, P31K
modifications: Aib2, αMeF6, 4Pal10, αMeL13, Orn16, Aib20, D-Glu24, αMeY25; acylated K17, K31 (groups as in name); C-terminal amide
B10: Y-Aib-EGT-αMeF(2F)-TSD-4Pal-SI-αMeL-LD-Orn-K((2-[2-(2-Amino-ethoxy)-ethoxy]-acetyl)2-CO-(CH2)12-CO2H)AQ-Aib-EFI-(D-Glu)-αMeY-LIEGGK((2-[2-(2-Amino-ethoxy)-ethox … (peptide)
peptide: B1 peptide with K28E, P31K
modifications: Aib2, αMeF(2F)6, 4Pal10, αMeL13, Orn16, K17(Z1), Aib20, D-Glu24, αMeY25, K31(Z1), C-term NH2; Z1=AEEA2-CO-(CH2)12-CO2H

Legend:
[1] = target: human glucagon receptor (human, UniProt P47871 26-477); assay: cell-based or functional assay
[2] = target: T1, human GLP-1 receptor (human, UniProt P43220 24-463); assay: SPA competition vs [125I]-GLP-1, hGLP-1R membranes
T1 construct: whole, on cells; also called hGLP-1R; human glucagon-like peptide-1 receptor
Experimental: The binding buffer contains 25 mM HEPES, pH 7.4, 2.5 mM CaCl₂, 1 mM MgCl₂, 0.1% (w/v) bacitracin, 0.003% (w/v) TWEEN®-20, and Roche Complete™ Protease Inhibitors without EDTA.
(§1) Data are analyzed using four-parameter (curve maximum, curve minimum, IC₅₀, Hill slope) nonlinear regression routines (Genedata Screener, version 12.0.4, Genedata AG, Basal, Switzerland). […] Values for Kᵢ are reported as the geometric mean, with error expressed as the standard error of the mean (SEM) and n is equal to the number of independent replicates (determined in assays performed on different days). Geometric Means are calculated as follows: […]

[3] = target: T2, human glucagon receptor (human, UniProt P47871 26-477); assay: SPA competition vs [125I]-Gcg, hGcgR membranes
T2 construct: whole, on cells; also called hGCGR; hGcgR
Experimental: The binding buffer contains 25 mM 4-(2-hydroxyethyl)-1-piperazineethanesulfonic acid (HEPES), pH 7.4, 2.5 mM CaCl₂, 1 mM MgCh, 0.1% (w/v) bacitracin (Research Products), 0.003% (w/v) Polyoxyethylenesorbitan monolaurate (TWEEN®-20), and Roche Complete™ Protease Inhibitors without EDTA. […] Plates are sealed and mixed on a plate shaker (setting 6) for 1 minute and read with a PerkinElmer Trilux MicroBeta® scintillation counter after 12 hours of incubation/settling time at room temperature.
Data are analyzed using four-parameter (curve maximum, curve minimum, IC₅₀, Hill slope) nonlinear regression routines (Genedata Screener, version 12.0.4, Genedata AG, Basal, Switzerland). […] Values for Kᵢ are reported as the geometric mean, with error expressed as the standard error of the mean (SEM) and n is equal to the number of independent replicates (determined in assays performed on different days).
T2 sequence (P47871 26-477): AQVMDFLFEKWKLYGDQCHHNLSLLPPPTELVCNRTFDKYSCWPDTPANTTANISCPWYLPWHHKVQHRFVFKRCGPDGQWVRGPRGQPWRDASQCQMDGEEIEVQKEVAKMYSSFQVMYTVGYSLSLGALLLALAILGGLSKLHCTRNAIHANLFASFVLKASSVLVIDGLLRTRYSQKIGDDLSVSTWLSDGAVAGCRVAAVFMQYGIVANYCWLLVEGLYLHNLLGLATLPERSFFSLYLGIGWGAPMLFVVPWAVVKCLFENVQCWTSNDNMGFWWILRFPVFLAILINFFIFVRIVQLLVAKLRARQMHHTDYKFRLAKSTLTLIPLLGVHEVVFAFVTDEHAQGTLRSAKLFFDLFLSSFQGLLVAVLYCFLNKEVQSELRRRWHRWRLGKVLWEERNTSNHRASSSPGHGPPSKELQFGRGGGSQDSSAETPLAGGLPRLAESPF

[4] = target: T3, human GIP receptor (human, UniProt P48546 22-466); assay: SPA competition vs [125I]-GIP, hGIPR membranes
T3 construct: whole, on cells; also called hGIPR; human glucose-dependent insulinotropic polypeptide receptor
T3 sequence (looked up): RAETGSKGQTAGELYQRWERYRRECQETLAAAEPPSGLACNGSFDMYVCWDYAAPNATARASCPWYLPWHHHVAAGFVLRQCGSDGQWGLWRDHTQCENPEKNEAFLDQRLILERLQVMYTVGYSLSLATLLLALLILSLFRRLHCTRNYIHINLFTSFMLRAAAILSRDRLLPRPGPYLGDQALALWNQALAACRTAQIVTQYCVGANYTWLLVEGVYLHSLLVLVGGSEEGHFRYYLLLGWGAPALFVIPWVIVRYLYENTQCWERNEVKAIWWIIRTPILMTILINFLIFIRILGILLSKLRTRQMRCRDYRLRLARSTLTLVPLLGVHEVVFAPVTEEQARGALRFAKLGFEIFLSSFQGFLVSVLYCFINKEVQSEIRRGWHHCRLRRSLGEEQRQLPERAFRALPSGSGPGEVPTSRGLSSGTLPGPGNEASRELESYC
Experimental: The binding buffer contains 25 mM HEPES, pH 7.4, 2.5 mM CaCl₂, 1 mM MgCl₂, 0.1% (w/v) bacitracin, 0.003% (w/v) TWEEN®-20, and Roche Complete™ Protease Inhibitors without EDTA. […] Plates are sealed and mixed on a plate shaker (setting 6) for 1 minute and read with a PerkinElmer Trilux MicroBeta® scintillation counter after 2.5 to 12 hours of incubation/settling time at room temperature.
as §1

Binder | cAMP EC50 (1.0% HSA) [1] | Ki [2] | Ki [3] | Ki [4]
B1 | > 9950 nM |  |  | 
B2 |  | 1.47 nM | 611 nM | 0.103 nM
B3 | > 9950 nM |  |  | 
B4 | > 9950 nM |  |  | 
B5 |  |  | 0.62 nM | 0.0308 nM
B6 | > 9950 nM |  |  | 
B7 | > 9950 nM |  |  | 
B8 |  | 0.803 nM | 174 nM | 0.0608 nM
B9 | > 9950 nM |  |  | 
B10 |  |  | 209 nM | 0.0557 nM

Reference: patent publication US20230265151A1, “GIP/GLP1 CO-AGONIST COMPOUNDS” (priority 2020, published 2023)
